The values that follow are results of earlier work, collected in PMC3386954.

The data set has as its target Capillary morphogenesis gene 2 protein (Homo sapiens) (UniProt P58335).

What is called Kd is the free concentration of one partner at which half of the binding sites on the other are occupied at equilibrium, for simple one-to-one binding. As to “Protective antigen (from UniProt P13423)”, the Kd was greater than 0.17 nM.
